These results are taken from publication PMC4357698.

In one experiment the target is 40S ribosomal subunit (UniProt P62841). Briefly: co-sedimentation.
Experiment [1] addresses 43S preinitiation complex reconstituted from purified components (UniProt P62841). Briefly: co-sedimentation.

Bounds are passed on as bounds.

As to “human SRP9/14 protein dimer (from UniProt P49458 1-86; P37108 1-136) (complex)”, in the experiment with 40S ribosomal subunit, the share of h9/14 comigrating with the subunit (fraction of h9/14) turned out to be 0.33 and the stoichiometry N (binding sites on 40S) is > 1. In experiment [1], this substance returned a fold reduction of bound SRP9/14 against the scAluY^A RNP sample of 3 fold and a percent of SRP9/14 comigrating with the complex of 15%.
